Literature values, collected in patent US11033499B2, “Tablet formulation comprising a GLP-1 peptide and a delivery agent” (priority 2012, dated 2021).

Details: published studies with SNAC and human GLP-1

For “human GLP-1: human GLP-1 given with SNAC in published studies”, which Tmax is on record?
Its Tmax is 20 to 30 min.
